Assays:
[1] = target: CrArl3 (Chlamydomonas reinhardtii)
[2] = target: CrArl3 D103R (Chlamydomonas reinhardtii)
[3] = target: CrArl3 D146R (Chlamydomonas reinhardtii)
[4] = target: CrArl3 (Chlamydomonas reinhardtii); remark: listed apart in the source
[5] = target: CrArl3 (Chlamydomonas reinhardtii); remark: listed apart in the source

B1: CrArl13B △243 (18–242) (domain or fragment)
chain: RKITIALLGLDNAGKTTLLNSIQGEVDRDTTPTFGFNSTTLNEGKYKIEVFDLGGGKNIRGVWKKYLAEVHAIVYVVDAADPGRFEESKMTMAEVLENQFMRDKPICIFANKQDLPTAAPAAEVVKGLGLATCRNSHNVFPCTAKMPAGQDVDHRLRDGLKWLVGTVDREFGRLDPRVQTEAEEVRQEEARKKKEREERLRKQREERLRQQKEEEERAREVEKEN
Kobs of nucleotide release from CrArl3 wt with 5 µM CrArl13B △243 (GEF assay, deletion constructs) [1]: 0.0045 s⁻¹

B2: CrArl13B^18-–278 (domain or fragment)
chain: RKITIALLGLDNAGKTTLLNSIQGEVDRDTTPTFGFNSTTLNEGKYKIEVFDLGGGKNIRGVWKKYLAEVHAIVYVVDAADPGRFEESKMTMAEVLENQFMRDKPICIFANKQDLPTAAPAAEVVKGLGLATCRNSHNVFPCTAKMPAGQDVDHRLRDGLKWLVGTVDREFGRLDPRVQTEAEEVRQEEARKKKEREERLRKQREERLRQQKEEEERAREVEKENELHDGKAPSLLAAGGGVVGAAAAGVNGVMVDEQQEL
Kobs of nucleotide release from 500 nM CrArl3·mantGppNHp with 5 µM CrArl13B wt (GEF assay, switch interface mutants) [1]: 0.0091 s⁻¹ | Kobs of nucleotide release from CrArl3 wt with 5 µM CrArl13B 18-278 (GEF assay, deletion constructs) [1]: 0.0066 s⁻¹ | Kobs of nucleotide release from CrArl3 wt·mantGppNHp with 5 µM CrArl13B wt (GEF assay, charge reversal interface mutants) [1]: 0.0085 s⁻¹ | Kobs of nucleotide release from CrArl3 D103R·mantGppNHp with 5 µM CrArl13B wt (GEF assay) [2]: 0.00014 s⁻¹ | Kobs of nucleotide release from CrArl3 D146R·mantGppNHp with 5 µM CrArl13B wt (GEF assay) [3]: 0.00014 s⁻¹ | Kobs of mantGDP release from 500 nM CrArl3 with 5 µM CrArl13B·GDP (GEF assay) [4]: 0.0009 s⁻¹ | Kobs of mantGDP release from 500 nM CrArl3 with 5 µM CrArl13B·GTP (GEF assay) [4]: 0.006 s⁻¹ | Kobs of mantGDP release from 500 nM CrArl3 with 5 µM CrArl13B·GppNHp (GEF assay) [4]: 0.0078 s⁻¹ | KM of the GEF reaction (kobs of mantGDP release from 500 nM CrArl3 against GEF concentration) for CrArl13B·GDP [5]: 155 µM | KM of the GEF reaction (kobs of mantGDP release from 500 nM CrArl3 against GEF concentration) for CrArl13B·GTP [5]: 1.1 µM

B3: CrArl13B N75A (18-278) (domain or fragment)
chain: RKITIALLGLDNAGKTTLLNSIQGEVDRDTTPTFGFNSTTLNEGKYKIEVFDLGGGKAIRGVWKKYLAEVHAIVYVVDAADPGRFEESKMTMAEVLENQFMRDKPICIFANKQDLPTAAPAAEVVKGLGLATCRNSHNVFPCTAKMPAGQDVDHRLRDGLKWLVGTVDREFGRLDPRVQTEAEEVRQEEARKKKEREERLRKQREERLRQQKEEEERAREVEKENELHDGKAPSLLAAGGGVVGAAAAGVNGVMVDEQQEL
Kobs of nucleotide release from 500 nM CrArl3·mantGppNHp with 5 µM CrArl13B N75A (GEF assay) [1]: 0.0044 s⁻¹

B4: CrArl13B D46A (18-278) (domain or fragment)
chain: RKITIALLGLDNAGKTTLLNSIQGEVDRATTPTFGFNSTTLNEGKYKIEVFDLGGGKNIRGVWKKYLAEVHAIVYVVDAADPGRFEESKMTMAEVLENQFMRDKPICIFANKQDLPTAAPAAEVVKGLGLATCRNSHNVFPCTAKMPAGQDVDHRLRDGLKWLVGTVDREFGRLDPRVQTEAEEVRQEEARKKKEREERLRKQREERLRQQKEEEERAREVEKENELHDGKAPSLLAAGGGVVGAAAAGVNGVMVDEQQEL
Kobs of nucleotide release from 500 nM CrArl3·mantGppNHp with 5 µM CrArl13B D46A (GEF assay) [1]: 0.0041 s⁻¹

B5: CrArl13B Y83A (18-278) (domain or fragment)
chain: RKITIALLGLDNAGKTTLLNSIQGEVDRDTTPTFGFNSTTLNEGKYKIEVFDLGGGKNIRGVWKKALAEVHAIVYVVDAADPGRFEESKMTMAEVLENQFMRDKPICIFANKQDLPTAAPAAEVVKGLGLATCRNSHNVFPCTAKMPAGQDVDHRLRDGLKWLVGTVDREFGRLDPRVQTEAEEVRQEEARKKKEREERLRKQREERLRQQKEEEERAREVEKENELHDGKAPSLLAAGGGVVGAAAAGVNGVMVDEQQEL
Kobs of nucleotide release from 500 nM CrArl3·mantGppNHp with 5 µM CrArl13B Y83A (GEF assay) [1]: 0.0009 s⁻¹

B6: CrArl13B^F53A (18-278) (domain or fragment)
chain: RKITIALLGLDNAGKTTLLNSIQGEVDRDTTPTFGANSTTLNEGKYKIEVFDLGGGKNIRGVWKKYLAEVHAIVYVVDAADPGRFEESKMTMAEVLENQFMRDKPICIFANKQDLPTAAPAAEVVKGLGLATCRNSHNVFPCTAKMPAGQDVDHRLRDGLKWLVGTVDREFGRLDPRVQTEAEEVRQEEARKKKEREERLRKQREERLRQQKEEEERAREVEKENELHDGKAPSLLAAGGGVVGAAAAGVNGVMVDEQQEL
Kobs of nucleotide release from 500 nM CrArl3·mantGppNHp with 5 µM CrArl13B F53A (GEF assay) [1]: 0.00042 s⁻¹

B7: CrArl13B F51A (18-278) (domain or fragment)
chain: RKITIALLGLDNAGKTTLLNSIQGEVDRDTTPTAGFNSTTLNEGKYKIEVFDLGGGKNIRGVWKKYLAEVHAIVYVVDAADPGRFEESKMTMAEVLENQFMRDKPICIFANKQDLPTAAPAAEVVKGLGLATCRNSHNVFPCTAKMPAGQDVDHRLRDGLKWLVGTVDREFGRLDPRVQTEAEEVRQEEARKKKEREERLRKQREERLRQQKEEEERAREVEKENELHDGKAPSLLAAGGGVVGAAAAGVNGVMVDEQQEL
Kobs of nucleotide release from 500 nM CrArl3·mantGppNHp with 5 µM CrArl13B F51A (GEF assay) [1]: 0.002 s⁻¹

B8: CrArl13B H154W (18-278) (domain or fragment)
chain: RKITIALLGLDNAGKTTLLNSIQGEVDRDTTPTFGFNSTTLNEGKYKIEVFDLGGGKNIRGVWKKYLAEVHAIVYVVDAADPGRFEESKMTMAEVLENQFMRDKPICIFANKQDLPTAAPAAEVVKGLGLATCRNSWNVFPCTAKMPAGQDVDHRLRDGLKWLVGTVDREFGRLDPRVQTEAEEVRQEEARKKKEREERLRKQREERLRQQKEEEERAREVEKENELHDGKAPSLLAAGGGVVGAAAAGVNGVMVDEQQEL
Kobs of nucleotide release from CrArl3 wt·mantGppNHp with 5 µM CrArl13B H154W (GEF assay) [1]: 0.0088 s⁻¹

Reference: paper PMC4868535, “A G-protein activation cascade from Arl13B to Arl3 and implications for ciliary targeting of lipidated proteins” (eLife, 2015)
